We go through 95 variants from the supplement of paper PMC10567573.

To fix the notation:
B1: FAM46D (parent)
chain: FQEAMTHLQHKLICTRKPEEIRGG
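Note: lentivirally expressed fusions sorted by FACS into six bins by GFP to DsRed ratio, PSI derived from sequencing read proportions per bin multiplied by bin number.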

In the data set the parent is B1. The experiment in a line: protein stability index of a GFP-peptide fusion (GPS, HEK-293T) (PSI 1-6); higher = more stable. The note with it: c terminus: a fixed tail appended.
Turning to FQEAMTHDQHKLICTRKPEEIRGG, the protein stability index came out at 4.31.

Take FQEAMTHNQHKLICTRKPEEIRGG: the protein stability index was determined as 3.76.

Take FQEAMTHFQHKLICTRKPEEIRGG: the protein stability index is 2.42.

On to FQEAMTHGQHKLICTRKPEEIRGG, for which the protein stability index was determined as 3.09.

In the case of FQEAMTHCQHKLICTRKPEEIRGG, the protein stability index is 3.23.

Consider FQEAMTHRQHKLICTRKPEEIRGG, for which the protein stability index came to 3.31.

As to FQEAMTHLQHKLICTAKPEEIRGG, the protein stability index worked out at 3.35.

As to FQEAMTHLQHKLICTEKPEEIRGG, the protein stability index amounted to 2.57.

In the case of FQEAMTHLQHKLICTWKPEEIRGG, the protein stability index amounted to 1.67.

Turning to FQEAMTHLQHKLICTKKPEEIRGG, the protein stability index was 2.09.

Regarding FQEAMTHLQHKLICTRKPEPIRGG, the protein stability index stood at 2.39.

With FQEAMTHLQHKLICTRKPEQIRGG, the protein stability index came out at 2.33.

FQEAMTHLQHKLICTRKPERIRGG: the protein stability index turned out to be 2.19.

On to FQEAMTHLQHKLICTRKPEWIRGG, for which the protein stability index came to 2.08.

Regarding FQEAMTHLQHKLICTRKPEEIRGM, the protein stability index is 1.85.

FQEAMTHLQHKLICTRKPEEIRGA: the protein stability index was found to be 2.26.

Take FQEAMTHLQHKLICTRKPEEIRGR: the protein stability index was 2.07.

Take FQEAMTHLQQKLICTRKPEEIRGG: the protein stability index was 3.05.

For FQEAMTHLQMKLICTRKPEEIRGG, the protein stability index stood at 1.44.

With QQEAMTHLQHKLICTRKPEEIRGG, the protein stability index worked out at 3.85.

In the case of GQEAMTHLQHKLICTRKPEEIRGG, the protein stability index was 4.4.

Turning to EQEAMTHLQHKLICTRKPEEIRGG, the protein stability index stood at 5.26.

Turning to KQEAMTHLQHKLICTRKPEEIRGG, the protein stability index was 3.61.

Turning to TQEAMTHLQHKLICTRKPEEIRGG, the protein stability index was 3.96.

With IQEAMTHLQHKLICTRKPEEIRGG, the protein stability index turned out to be 3.29.

On to NQEAMTHLQHKLICTRKPEEIRGG, for which the protein stability index came to 4.29.

Take FQEAMTHLQHKLICTRKPEEIRVG: the protein stability index turned out to be 2.15.

For FQEAMTHLQHKLICTRKPEEIRQG, the protein stability index was found to be 2.34.

For FQEAMTHLQHKLICTRKPEEIRCG, the protein stability index is 2.08.

For FQEAMTHLQHKLICTRKPEEIRRG, the protein stability index turned out to be 2.45.

In the case of FQEAMTHLQHKLICTRKPEEIRAG, the protein stability index was found to be 2.76.

Consider FQEAMTHLQHKLICTRKPEEDRGG, for which the protein stability index amounted to 3.26.

For FQEAMTHLQHKLICTRKPEEPRGG, the protein stability index is 3.36.

For the variant FQEAMTHLQHKLICTRKPEELRGG, the protein stability index turned out to be 2.34.

As to FQEAMTHLQHKLICTRKPEEVRGG, the protein stability index amounted to 2.43.

On to FQEAMTHLQHKLICTRKPEETRGG, for which the protein stability index came to 3.56.

FQEAMTHLQHKLICTRKPEEARGG: the protein stability index worked out at 3.27.

Regarding FQEAMTHLWHKLICTRKPEEIRGG, the protein stability index was 1.16.

Consider FQEAMTHLKHKLICTRKPEEIRGG, for which the protein stability index stood at 2.38.

With FQEAMTHLTHKLICTRKPEEIRGG, the protein stability index was found to be 2.6.

In the case of FQEAMTHLQHKLICTRHPEEIRGG, the protein stability index was determined as 2.38.

Take FQEAMTHLQHKLICTRSPEEIRGG: the protein stability index was 2.75.

In the case of FQEAMTHLQHKLICTRVPEEIRGG, the protein stability index amounted to 2.64.

In the case of FQEAMTHLQHKLICTRIPEEIRGG, the protein stability index is 2.68.

FQEAMTHLQHKLICTRCPEEIRGG: the protein stability index was 1.91.

Take FQEAMTHLQHKLICTRTPEEIRGG: the protein stability index turned out to be 2.65.

On to FQEAMTHLQHKLICTRAPEEIRGG, for which the protein stability index amounted to 2.58.

FQEAMTHLQHKLICMRKPEEIRGG: the protein stability index stood at 3.17.

As to FQEAMTHLQHKLICKRKPEEIRGG, the protein stability index is 3.42.

As for FQEAMTHLQHKLICLRKPEEIRGG, the protein stability index was 1.77.

FQEAMTHLQHKLICGRKPEEIRGG: the protein stability index is 3.56.

For the variant FQEAMTHLQHKLICERKPEEIRGG, the protein stability index was 3.06.

With FQEAMTHLQHKLICCRKPEEIRGG, the protein stability index is 2.42.

On to FQEAMTHLQHKLICTRKPDEIRGG, for which the protein stability index is 2.55.

As to FQEAMTHLQHKLICTRKPPEIRGG, the protein stability index came to 3.13.

With FQEAMTHLQHKLICTRKPSEIRGG, the protein stability index worked out at 2.76.

Regarding FQEAMTHLQHKKICTRKPEEIRGG, the protein stability index came out at 2.9.

Regarding FQEAMTHLQHKRICTRKPEEIRGG, the protein stability index was determined as 2.71.

As to FQEAMTHLQHKDICTRKPEEIRGG, the protein stability index is 2.98.

Regarding FQEAMTHLQHKVICTRKPEEIRGG, the protein stability index was 3.06.

For FQEAMTHLQHKYICTRKPEEIRGG, the protein stability index came to 2.31.

In the case of FQEAMTHLQHKNICTRKPEEIRGG, the protein stability index came out at 4.18.

On to FQEAMTHLQHKLCCTRKPEEIRGG, for which the protein stability index worked out at 3.07.

With FQEAMTHLQHKLSCTRKPEEIRGG, the protein stability index came to 2.94.

Take FQEAMTHLQHKLKCTRKPEEIRGG: the protein stability index was found to be 3.67.

On to FQEAMTHLQHKLHCTRKPEEIRGG, for which the protein stability index turned out to be 2.54.

Regarding FQEAMTHLQHKLNCTRKPEEIRGG, the protein stability index stood at 3.33.

Regarding FQEAMTHLQHKLRCTRKPEEIRGG, the protein stability index stood at 2.72.

For FQEAMTHLQHKLICTRKLEEIRGG, the protein stability index turned out to be 2.11.

As to FQEAMTHLQHKLICTRKCEEIRGG, the protein stability index stood at 1.3.

For the variant FQEAMTHLQHKLICTRKREEIRGG, the protein stability index is 2.09.

As for FQNAMTHLQHKLICTRKPEEIRGG, the protein stability index turned out to be 2.55.

Consider FQRAMTHLQHKLICTRKPEEIRGG, for which the protein stability index worked out at 1.82.

Take FQPAMTHLQHKLICTRKPEEIRGG: the protein stability index came out at 2.8.

Take FQVAMTHLQHKLICTRKPEEIRGG: the protein stability index is 2.08.

As to FQFAMTHLQHKLICTRKPEEIRGG, the protein stability index is 1.48.

Regarding FQEFMTHLQHKLICTRKPEEIRGG, the protein stability index came to 1.82.

In the case of FQEMMTHLQHKLICTRKPEEIRGG, the protein stability index was 3.38.

Take FQERMTHLQHKLICTRKPEEIRGG: the protein stability index was determined as 2.75.

Regarding FQETMTHLQHKLICTRKPEEIRGG, the protein stability index was determined as 3.29.

In the case of FQEEMTHLQHKLICTRKPEEIRGG, the protein stability index came out at 3.28.

Take FQEYMTHLQHKLICTRKPEEIRGG: the protein stability index is 2.

Consider FQEAMTHLQHNLICTRKPEEIRGG, for which the protein stability index stood at 2.17.

Take FQEAMTHLQHHLICTRKPEEIRGG: the protein stability index worked out at 2.44.

As to FQEAMTHLQHVLICTRKPEEIRGG, the protein stability index is 1.86.

Regarding FQEAMTHLQHPLICTRKPEEIRGG, the protein stability index came out at 2.44.

In the case of FQEAMTHLQHDLICTRKPEEIRGG, the protein stability index stood at 2.88.

For the variant FQEAMTHLQHMLICTRKPEEIRGG, the protein stability index was found to be 1.57.

FQEAMTHLQHKLICTRKPEEIKGG: the protein stability index was 3.07.

Consider FQEAMTHLQHKLICTRKPEEIFGG, for which the protein stability index amounted to 2.34.

In the case of FQEAMTHLQHKLICTRKPEEICGG, the protein stability index is 2.41.

As for FQEAMTHLQHKLICTRKPEEIQGG, the protein stability index amounted to 2.94.

Turning to FHEAMTHLQHKLICTRKPEEIRGG, the protein stability index was 2.02.

For the variant FEEAMTHLQHKLICTRKPEEIRGG, the protein stability index was 4.25.

As for FQEAMRHLQHKLICTRKPEEIRGG, the protein stability index came out at 2.69.
